{"source": "patent US12570709B2", "about": "“Self-assembling peptide amphiphiles displaying a transforming growth factor beta 1 (TGF-ß1) mimetic epitope” (Northwestern University, priority 2021, dated 2026)", "key": {"[1]": {"experiment": "Transverse-relaxation (T2) NMR spectroscopy of PA assemblies", "type": "physicochemical", "conditions": "TGF PA co-assembled at 10 mol % with diluent backbone PA", "procedure": "NMR spectra were acquired at 600 MHz on a Brucker Neo system with QCI-F cryoprobe. NMR spectra for PAs were recorded at 25° C. using TFA-d, H2O/D2O in 9/1 ratio (D2O contains 0.05 wt. % 3-(trimethylsilyl) propionic-2,2,3,3-d4 acid, sodium salt) as solvents. Chemical shifts are reported in part per million (ppm). The […] was 15 μs and typical spectra required 32 scans.\nThe spin-spin relaxation rates were measured using the Carr-Purcell-Gill-Meiboom pulse sequence with a delay time of 0.2 ms in a variable loop. The peak intensity data was fit to and exponential in the form:\n[formula] where τ is the length of the delay time, R2 is the spin-spin relaxation rate and b are the baseline.^2 Cell Culture"}, "[2]": {"experiment": "Rheology of PA hydrogels (strain sweep, G′/G″ crossover)", "type": "physicochemical", "conditions": "PA gels, 10 mol % co-assemblies", "procedure": "Gels were made using 2 wt % PA solutions prepared as previously described, using 10 mol % co-assemblies of epitope PA with diluent PA. 12-well chamber slides (Ibidi) were coated with 0.01 mg/mL poly-D-lysine (Sigma-Aldrich) solution and incubated overnight at 37° C. The wells were washed three times with water and air-dried for at least 30 minutes. 120 μL of PA solution was pipetted evenly into the well and gelling solution comprised of 110 mM NaCl, 3 mM KCl, and 25 mM CaCl2 was pipetted dropwise on top of the PA solution. The gels were incubated at 37° C. for 30 minutes, and then excess gelling solution was removed.\nMeasurements were performed on an Anton Paar MCR302 rheometer with a 25 mm parallel-plate fixture. 120 μL of the PA/HA hybrid slurry was placed on the bottom plate and 30 μL of a 50 mM CaCl2/75 mM NaCl gelling solution was placed on the upper fixture. The fixture was lowered to a gap of 0.5 mm for 10 min during which time a 0.1% oscillatory strain was applied with a 10 rad/s angular frequency. The gap height was allowed to vary to keep the normal force at 0 N. Next, a strain sweep was performed at 10 rad/s from 0.1% to 100% strain to measure the strain to break the gel."}, "[3]": {"experiment": "Cryo-TEM of PA nanostructures", "type": "physicochemical", "conditions": "10 mol % co-assembly with diluent backbone PA", "procedure": "300-mesh copper grids with lacey carbon film (Electron Microscopy Sciences) were glow discharged for 30 seconds in a PELCO easiGlow system (Ted Pella, Inc.). PA solutions were prepared as previously described and then diluted to 1 mM in water before imaging. 7 μL of PA solution was placed onto grids, blotted, and plunge-frozen in liquid ethane using an FEI Vitrobot Mark IV (FEI), maintained at 95-100% humidity. While submerged in liquid nitrogen, vitrified samples were transferred to a Gatan 626 cryo-holder (Gatan) and imaged on a JEOL 1230 TEM operating at 100 kV accelerating voltage. Liquid nitrogen temperatures were maintained during imaging, and micrographs were captured with a Gatan 832 CCD camera."}, "[4]": {"experiment": "Fluorescence anisotropy of TAMRA-labeled epitopes", "type": "physicochemical", "conditions": "10 mol % co-assembly", "procedure": "PA co-assemblies of diluent PA, TGF-β1 mimetic PA, and fluorescent dye-conjugated TGF-β1 mimetic PA were prepared in a 90:8:2 mol % ratio. The dye-conjugated PA was synthesized as previously described with a tetramethylrhodamine (TAMRA) molecule conjugated to the N-terminal amine of the TGF-β1 mimetic epitope. The PA solutions were prepared as previously described and diluted immediately before measurement to 100 μM PA, 100 μM CaCl2), and 30 mM NaCl. Fluorescence measurements were performed on an ISS PC1 photon counting steady-state fluorescence spectrometer equipped with a 300 W xenon arc lamp with power set to 18 A. Excitation slit widths of 1 mm (8 nm bandwidth) and emission slit widths of 0.5 mm (4 nm bandwidth) were used. Fluorescence anisotropy measurements were performed with λex=554 nm and λem=580 nm according to the equation:\n[formula] Where F∥ is the intensity parallel to the excitation plane, F⊥ is the intensity perpendicular to the excitation plane, and g is the g-factor, which accounts for differences in emissions between the perpendicular and parallel gratings.^1 Measurements were taken in triplicate and averaged for final data analysis. Transverse-Relaxation Nuclear Magnetic Resonance Spectroscopy"}, "[5]": {"test_system": "collagen II, aggrecan and F-actin in human chondrocytes", "experiment": "Immunocytochemistry staining and fluorescence intensity analysis after three days", "type": "cell-based", "conditions": "three days in vitro", "procedure": "For immunocytochemistry (ICC), 12-mm glass coverslips were coated with sterile filtered 0.01 mg/mL poly-D-lysine (Sigma-Aldrich) solution and incubated overnight at 37° C. The coverslips were washed three times with sterile water and air-dried for at least 30 minutes. Cells were seeded on coverslips at a density of approximately 3,000 cells/coverslip and cultured for 24 h. Cells were then treated with PA in solution for 3 days in vitro. Following treatment, cells were fixed in 4% paraformaldehyde for 15 minutes at room temperature.\n(§1) Fixed samples were permeabilized and blocked in a solution of 0.1% (v/v) Triton X-100 and 1% normal horse serum (Invitrogen) for 2 hours at room temperature. Samples were incubated with primary antibodies overnight at 4° C. The following primary antibodies were used: rabbit anti-Sox9 (1:500, Abcam), mouse anti-Aggrecan (1:500, ThermoFisher), mouse anti-Collagen II (1:500, ThermoFisher), and mouse anti-Nuclei (1:500, Sigma-Aldrich). The next day, samples were incubated with AlexaFluor 488 secondary antibody, AlexaFluor 555 secondary antibody, Phalloidin AlexaFluor 488, and/or Phalloidin AlexaFluor 633 (1:1000, Invitrogen) for 2-3 h at room temperature. For 2D cell culture, samples were then incubated with DAPI (1:1000, Invitrogen) for 10 minutes at room temperature. If not already on a glass coverslip, samples were mounted with Immu-Mount (Thermo Scientific) and imaged on a Nikon A1R Spectral microscope. Image analysis was performed using ImageJ software."}, "[6]": {"test_system": "human chondrocytes encapsulated in PA hydrogels", "experiment": "F-actin ICC and confocal microscopy of chondrocytes encapsulated in PA gels", "type": "cell-based", "conditions": "three days in vitro", "procedure": "as §1\nChondrocytes were trypsinized and resuspended in growth media for counting, and then pelleted and resuspended to 6×10^7 cells/mL in growth media. The cell solution was mixed 1:2 v/v with sterile PA solution prepared at 3 wt % in 30 mM NaCl. For gels also encapsulating rhTGF-β1 protein (R&D Systems), soluble protein was added to PA solutions after thermal annealing. 120 μL of PA/cell solution was mixed thoroughly by pipetting gently and then placed into PDL-coated 12-well chamber slides (Ibidi). Sterile gelling solution, comprised of 110 mM NaCl, 3 mM KCl, and 25 mM CaCl2, was pipetted dropwise on top of the PA/cell solution and the gels were incubated for 30 minutes at 37° C. Following incubation, excess gelling solution was removed and 250 μL of growth media was added to each well. The media was removed after 3 days for LDH viability assays as described above. For ICC, after 3 days of in vitro culture, gels were fixed in 4% paraformaldehyde for 30 minutes at room temperature."}, "[7]": {"test_system": "C28/I2 human articular chondrocytes", "method": "PA solutions (backbone PA, TGF PA, ln TGF PA, and peptide only) were prepared at 1 wt % as previously described, under sterile conditions. For cell treatments lasting <24 h, PA treatment solutions or native rhTGF-β1 protein (R&D Systems) were diluted in starvation medium, which comprised of DMEM High Glucose Medium (Gibco) supplemented with 0.5% fetal bovine serum (Denville Scientific), 100 U/mL penicillin, and 100 μg/mL streptomycin (Gibco). For cell treatments lasting 24 h or more, PA treatment solutions or native rhTGF-β1 protein (R&D Systems) were diluted in complete growth medium. PA solutions were prepared at a range of concentrations, 1, 10, 50, and 100 μM, where the concentration refers to the concentration of the epitope PA.\nFor cell viability assays, cells were seeded in 48-well plates at a density of approximately 15,400 cells/well and cultured for 24 h. Cells were then treated with PA in solution for 24 h or 3 days in vitro.\nFor 2D viability assays, cells were cultured and treated with PA solutions in vitro as previously described. After 24 h or 3 days of culture, cells were washed with HBSS (Gibco), and media was exchanged with HBSS containing 2 μM Calcein AM (Invitrogen) and 100 ng/mL propidium iodide (Sigma-Aldrich) for 30 minutes at 37° C. Cells were washed with HBSS and imaged."}}, "note": "Bridge positions count the residues as written; N and C are the ends. Ends that are not written are not given here. I, II: the chains in the order shown. * marks the point of attachment. Palmitoyl = CCCCCCCCCCCCCCCC(=O)*", "data": [{"substance": "TGF PA-a: backbone PA-a (SEQ ID NO: 7) conjugated to cyclic TGF-β1 mimetic peptide (SEQ ID NO: 1) by a linker; co-assembled with diluent Backbone PA-a (chain Palmitoyl-AAEEK-OH; peptide CESPLKRQC; disulfide II:1-II:9; not fully specified (some residues); also: co-assembled with diluent backbone PA-a)", "values": [{"measurement": "relaxation rate for the alkyl tail protons, compared with TGF PA-b assemblies", "setting": "[1]", "value": "nearly five times higher"}, {"measurement": "G′/G″ crossover % strain", "setting": "[2]", "value": "5.80 ± 1.40", "unit": "%"}, {"measurement": "G′/G″ crossover storage modulus", "setting": "[2]", "value": "0.63 ± 1.14", "unit": "kPa"}, {"measurement": "width of ribbon-like nanostructures", "setting": "[3]", "value": "50-60 nm"}, {"measurement": "fluorescence anisotropy (epitope rotational diffusion), compared to TGF PA-b", "setting": "[4]", "value": "significantly lower anisotropy values"}, {"measurement": "aggrecan synthesis", "setting": "[5]; 10 μM, ICC", "value": "significantly increased aggrecan synthesis at similar levels"}, {"measurement": "collagen II production compared with native rhTGF-β1", "setting": "[5]; 10 μM, ICC", "value": "significantly more collagen II production than native rhTGF-β1"}, {"measurement": "chondrocyte phenotype (F-actin staining)", "setting": "[5]", "value": "maintained healthy chondrocyte phenotypes and prevented hypertrophy"}, {"measurement": "morphology and distribution of encapsulated cells", "setting": "[6]", "value": "compact, elliptical morphologies and were well-dispersed"}, {"measurement": "cells within the bulk of the gel", "setting": "[6]; equal concentrations of cells encapsulated", "value": "remained inside the gels and survived three days in vitro"}, {"measurement": "biocompatibility compared with corresponding Backbone PA-b systems", "setting": "[7]", "value": "higher biocompatibility"}]}]}
